According to patent US20220017622A1 (Pfizer, published 2022):

T1: human B7-H4 on cells (human, UniProt Q7Z7D3 25-282)
T1 sequence (looked up): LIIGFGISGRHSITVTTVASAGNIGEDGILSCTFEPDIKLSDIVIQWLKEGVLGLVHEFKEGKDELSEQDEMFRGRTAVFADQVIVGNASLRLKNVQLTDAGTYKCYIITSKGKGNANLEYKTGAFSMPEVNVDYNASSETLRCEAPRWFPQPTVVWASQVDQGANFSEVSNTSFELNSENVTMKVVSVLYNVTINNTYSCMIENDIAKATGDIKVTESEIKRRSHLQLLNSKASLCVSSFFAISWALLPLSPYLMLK


The binders below were run against T1, human B7-H4 on cells (assay: cell-based or functional assay).

Row | Binder | T cell mediated tumor cell killing EC50, HCC1954-Luc
1 | B7-H4xCD3 bispecific antibody 1000 (bispecific antibody, IgG2) heavy 1: EVQLLESGGGLVQPGGSLRLSCAASGFTFSSYAMSWVRQAPGKGLEWVSAISGGGGSTYYADSVKGRFTISRDNSKNTLYLQMNSLRAEDTAVYYCARDIQWHGESTLFDYWGQGTLVTVSSASTKGPSVFPLAPCSRSTSESTAALGCLVKDYFPEPVTVSWNSGALTSGVHTFPAVLQSSGLYSLSSVVTVPSSNFGTQTYTCNVDHKPSNTKVDKTVERKCEVECPECPAPPVAGPSVFLFPPKPKDTLMISRTPEVTCVVVAVSHEDPEVQFNWYVDGVEVHNAKTKPREEQFNSTFRVVSVLTVVHQDWLNGKEYKCKVSNKGLPSSIEKTISKTKGQPREPQVYTLPPSREEMTKNQVSLTCEVKGFYPSDIAVEWESNGQPENNYKTTPPMLDSDGSFFLYSKLTVDKSRWQQGNVFSCSVMHEALHNHYTQKSLSLSPG light 1: DIQLTQSPSTLSASVGDRVTITCRASQSIRSWLAWFQQKPGKAPKLLIYKASSLEGGVPSRFSGSGSGTEFTLTISSLQPDDFATYYCQQYNSYSRTFGQGTKVEIKRTVAAPSVFIFPPSDEQLKSGTASVVCLLNNFYPREAKVQWKVDNALQSGNSQESVTEQDSKDSTYSLSSTLTLSKADYEKHKVYACEVTHQGLSSPVTKSFNRGEC heavy 2: EVQLVESGGGLVQPGGSLRLSCAASGFTFSDYYMTWVRQAPGKGLEWVAFIRNQARGYTSDHNPSVKGRFTISRDNAKNSLYLQMNSLRAEDTAVYYCARDRPSYYVLDYWGQGTTVTVSSASTKGPSVFPLAPCSRSTSESTAALGCLVKDYFPEPVTVSWNSGALTSGVHTFPAVLQSSGLYSLSSVVTVPSSNFGTQTYTCNVDHKPSNTKVDKTVERKCRVRCPRCPAPPVAGPSVFLFPPKPKDTLMISRTPEVTCVVVAVSHEDPEVQFNWYVDGVEVHNAKTKPREEQFNSTFRVVSVLTVVHQDWLNGKEYKCKVSNKGLPSSIEKTISKTKGQPREPQVYTLPPSREEMTKNQVSLTCLVKGFYPSDIAVEWESNGQPENNYKTTPPMLDSDGSFFLYSRLTVDKSRWQQGNVFSCSVMHEALHNHYTQKSLSLSPGK light 2: DIQMTQSPSSLSASVGDRVTITCTSSQSLFNVRSQKNYLAWYQQKPGKAPKLLIYWASTRESGVPSRFSGSGSGTDFTLTISSLQPEDFATYYCKQSYDLFTFGGGTKVEIKRTVAAPSVFIFPPSDEQLKSGTASVVCLLNNFYPREAKVQWKVDNALQSGNSQESVTEQDSKDSTYSLSSTLTLSKADYEKHKVYACEVTHQGLSSPVTKSFNRGEC | 100 nM
2 | B7-H4xCD3 bispecific antibody 1003 (bispecific antibody, IgG2) heavy 1: EVQLLESGGGLVQPGGSLRLSCAASGFTFSSYAMSWVRQAPGKGLEWVSAISGGGGSTYYADSVKGRFTISRDNSKNTLYLQMNSLRAEDTAVYYCARDIQWFGESTLFDYWGQGTLVTVSSASTKGPSVFPLAPCSRSTSESTAALGCLVKDYFPEPVTVSWNSGALTSGVHTFPAVLQSSGLYSLSSVVTVPSSNFGTQTYTCNVDHKPSNTKVDKTVERKCEVECPECPAPPVAGPSVFLFPPKPKDTLMISRTPEVTCVVVAVSHEDPEVQFNWYVDGVEVHNAKTKPREEQFNSTFRVVSVLTVVHQDWLNGKEYKCKVSNKGLPSSIEKTISKTKGQPREPQVYTLPPSREEMTKNQVSLTCEVKGFYPSDIAVEWESNGQPENNYKTTPPMLDSDGSFFLYSKLTVDKSRWQQGNVFSCSVMHEALHNHYTQKSLSLSPG light 1: DIQMTQSPSSLSASVGDRVTITCRASQSTRSHLAWYQQKPGKAPKLLIYKASSLEGGVPSRFSGSGSGTDFTLTISSLQPEDFATYYCQQYGSYSRTFGQGTKVEIKRTVAAPSVFIFPPSDEQLKSGTASVVCLLNNFYPREAKVQWKVDNALQSGNSQESVTEQDSKDSTYSLSSTLTLSKADYEKHKVYACEVTHQGLSSPVTKSFNRGEC heavy 2: EVQLVESGGGLVQPGGSLRLSCAASGFTFSDYYMTWVRQAPGKGLEWVAFIRNQARGYTSDHNPSVKGRFTISRDNAKNSLYLQMNSLRAEDTAVYYCARDRPSYYVLDYWGQGTTVTVSSASTKGPSVFPLAPCSRSTSESTAALGCLVKDYFPEPVTVSWNSGALTSGVHTFPAVLQSSGLYSLSSVVTVPSSNFGTQTYTCNVDHKPSNTKVDKTVERKCRVRCPRCPAPPVAGPSVFLFPPKPKDTLMISRTPEVTCVVVAVSHEDPEVQFNWYVDGVEVHNAKTKPREEQFNSTFRVVSVLTVVHQDWLNGKEYKCKVSNKGLPSSIEKTISKTKGQPREPQVYTLPPSREEMTKNQVSLTCLVKGFYPSDIAVEWESNGQPENNYKTTPPMLDSDGSFFLYSRLTVDKSRWQQGNVFSCSVMHEALHNHYTQKSLSLSPGK light 2: DIQMTQSPSSLSASVGDRVTITCTSSQSLFNVRSQKNYLAWYQQKPGKAPKLLIYWASTRESGVPSRFSGSGSGTDFTLTISSLQPEDFATYYCKQSYDLFTFGGGTKVEIKRTVAAPSVFIFPPSDEQLKSGTASVVCLLNNFYPREAKVQWKVDNALQSGNSQESVTEQDSKDSTYSLSSTLTLSKADYEKHKVYACEVTHQGLSSPVTKSFNRGEC | 100 nM
3 | B7-H4xCD3 bispecific antibody 1001 (bispecific antibody, IgG2) heavy 1: EVQLLESGGGLVQPGGSLRLSCAASGFTFSSYAMSWVRQAPGKGLEWVSAISGGGGSTYYADSVKGRFTISRDNSKNTLYLQMNSLRAEDTAVYYCARDIQWFGRSTLFDYWGQGTLVTVSSASTKGPSVFPLAPCSRSTSESTAALGCLVKDYFPEPVTVSWNSGALTSGVHTFPAVLQSSGLYSLSSVVTVPSSNFGTQTYTCNVDHKPSNTKVDKTVERKCEVECPECPAPPVAGPSVFLFPPKPKDTLMISRTPEVTCVVVAVSHEDPEVQFNWYVDGVEVHNAKTKPREEQFNSTFRVVSVLTVVHQDWLNGKEYKCKVSNKGLPSSIEKTISKTKGQPREPQVYTLPPSREEMTKNQVSLTCEVKGFYPSDIAVEWESNGQPENNYKTTPPMLDSDGSFFLYSKLTVDKSRWQQGNVFSCSVMHEALHNHYTQKSLSLSPG light 1: DIQLTQSPSTLSASVGDRVTITCRASQSIRSWLAWFQQKPGKAPKLLIYKASSLEGGVPSRFSGSGSGTEFTLTISSLQPDDFATYYCQQYNSYSRTFGQGTKVEIKRTVAAPSVFIFPPSDEQLKSGTASVVCLLNNFYPREAKVQWKVDNALQSGNSQESVTEQDSKDSTYSLSSTLTLSKADYEKHKVYACEVTHQGLSSPVTKSFNRGEC heavy 2: EVQLVESGGGLVQPGGSLRLSCAASGFTFSDYYMTWVRQAPGKGLEWVAFIRNQARGYTSDHNPSVKGRFTISRDNAKNSLYLQMNSLRAEDTAVYYCARDRPSYYVLDYWGQGTTVTVSSASTKGPSVFPLAPCSRSTSESTAALGCLVKDYFPEPVTVSWNSGALTSGVHTFPAVLQSSGLYSLSSVVTVPSSNFGTQTYTCNVDHKPSNTKVDKTVERKCRVRCPRCPAPPVAGPSVFLFPPKPKDTLMISRTPEVTCVVVAVSHEDPEVQFNWYVDGVEVHNAKTKPREEQFNSTFRVVSVLTVVHQDWLNGKEYKCKVSNKGLPSSIEKTISKTKGQPREPQVYTLPPSREEMTKNQVSLTCLVKGFYPSDIAVEWESNGQPENNYKTTPPMLDSDGSFFLYSRLTVDKSRWQQGNVFSCSVMHEALHNHYTQKSLSLSPGK light 2: DIQMTQSPSSLSASVGDRVTITCTSSQSLFNVRSQKNYLAWYQQKPGKAPKLLIYWASTRESGVPSRFSGSGSGTDFTLTISSLQPEDFATYYCKQSYDLFTFGGGTKVEIKRTVAAPSVFIFPPSDEQLKSGTASVVCLLNNFYPREAKVQWKVDNALQSGNSQESVTEQDSKDSTYSLSSTLTLSKADYEKHKVYACEVTHQGLSSPVTKSFNRGEC | 10 nM
